Data published in patent publication US20240317847A1 (Bayer, published 2024).
Residue numbers refer to the chain shown, from its start. Blank lines part the entries; values can stand above or below the binder they belong to.

Assays:
murine IL-11 = molecular target: T1, murine IL-11 (mouse, UniProt P47873 22-199); test: cell-based or functional assay
T1 sequence: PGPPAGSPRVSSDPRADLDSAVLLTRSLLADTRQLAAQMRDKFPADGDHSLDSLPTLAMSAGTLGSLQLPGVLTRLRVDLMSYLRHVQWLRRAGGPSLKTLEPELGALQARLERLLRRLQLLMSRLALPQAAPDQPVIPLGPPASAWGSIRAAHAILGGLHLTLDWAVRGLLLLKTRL

[1] = molecular target: T2, human IL-11 (Invigate, e.g., lot #C121021-19) (human, UniProt P20809 22-199); test: cell-based or functional assay
T2 sequence: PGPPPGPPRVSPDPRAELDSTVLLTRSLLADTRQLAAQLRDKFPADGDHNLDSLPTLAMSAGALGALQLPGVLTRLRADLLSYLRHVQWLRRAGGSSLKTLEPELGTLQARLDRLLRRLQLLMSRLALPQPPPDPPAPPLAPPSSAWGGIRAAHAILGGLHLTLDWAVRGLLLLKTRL

[2] = molecular target: T3, murine IL-11 (Invigate, e.g., lot #C210819-09) (mouse, UniProt P47873 22-199); test: cell-based or functional assay
T3 sequence: T1 sequence

[3] = molecular target: T4, human IL2Ra (Peprotech, Germany, #200-02RC) (human, UniProt P01589 22-240); test: direct binding ELISA on coated IL2Ra, antibody at 3.3E-7 [M]
T4 construct: Coated on the ELISA plate; also called hIL2Ra; IL-2 receptor alpha
T4 sequence (looked up): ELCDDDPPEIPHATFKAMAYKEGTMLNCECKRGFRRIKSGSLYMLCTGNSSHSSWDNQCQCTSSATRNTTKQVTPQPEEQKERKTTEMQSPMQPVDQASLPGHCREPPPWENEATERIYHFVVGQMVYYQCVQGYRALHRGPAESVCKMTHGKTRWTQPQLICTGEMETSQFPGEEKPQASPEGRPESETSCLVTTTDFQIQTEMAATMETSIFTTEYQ
Protocol: IL2RA (Peprotech, Germany, #200-02RC) was coated at 1 or 0 μg/ml (buffer only control) in 30 μl coating buffer (Candor, #113500) per well on a 384 well microtiter plate (Maxisorb, Nunc, #460518) over night at 4-8° C. After two washes with 50 μl/well washing buffer (PBS+0.05% Tween, pH 7.4), the plates were incubated for two hours at room temperature with 50 μl/well SmartBlock (Candor, #113500). After blocking, the plates were washed three times with washing buffer. […] After three additional washes, 30 μl anti mouse IgG HRP-conjugated antibody (Biotechne, HAF007), diluted 1:1000 in PBS+0.05% Tween (pH 7.4), were added per well and incubated for one hour. After three additional washes, a mixture of Amplex red (Invitrogen, #12222, 10 mM stock solution in DMSO) 1:1000 diluted in PBS and H2O2 (30%, Merck, #107209)) diluted 1:10000 in PBS were added as substrate with 30 μl per well and incubated for 20 min in the dark. Relative fluorescence was measured with a microtiter plate reader at 535/590 nm.

[4] = molecular target: T2, human IL-11 (Invigate, e.g., lot …); test: SPR, Biacore T200, 25 C; antibody captured via anti-mouse Fc, IL-11 as analyte, 1:1 Langmuir fit
Protocol: (§1) Antibodies were captured via anti-mouse Fc IgGs (“Mouse antibody capture kit, Order No. BR100383, Cytiva) covalently amine coupled to a Series S CM5 sensor chip (Cytiva). The amine coupling was carried out according to the manufacturer's instructions using 1-ethyl-3-(3-dimethylaminopropyl) carbodiimide hydrochloride (EDC), N-hydroxysuccinimide (NHS) and ethanolamine HCl, pH 8.5 (“Amine Coupling Kit” BR-1000-50, Cytiva.). Human IL-11 (Invigate, e.g., lot #C121021-19), and murine IL-11 (Invigate, e.g., lot #C210819-09) were used as analytes. […] Based on that experiment an IL-11 concentration range was chosen to optimally determine kinetics and affinity of anti-IL-11 antibodies in multicycle kinetics mode. The sensor surface was regenerated with glycine pH 1.7 after each antigen injection. Obtained sensorgrams were double referenced (subtraction of reference flow cell signal and buffer injection) and were fitted to a 1:1 Langmuir binding model to derive kinetic data using the Biacore T200 Evaluation software or the Biacore Insight software.

[5] = molecular target: T3, murine IL-11 (Invigate, e.g., lot …); test: as above
Protocol: as §1

[6] = molecular target: T3, murine IL-11 (Invigate, e.g., lot …); test: Tri-complex ELISA: antibody titrated against 8 nM murine IL-11, 2 nM murine gp130-human-Fc and 2 nM murine IL11RA-murine-Fc
Protocol: In the Tri-complex ELISA format IL-11 antibodies are tested for their ability to inhibit the formation of a complex consisting of murine or human gp130-Fc fusion protein, with murine or human IL-11, and a murine IL11RA-Fc fusion protein. The assay format was adapted according to FIG. 18 (a, b), depending on whether murine or human IL-11 IgG antibodies were tested.
The assay was performed using High Binding microtiter plates (Greiner, #781077). In a first step, 25 μl of goat anti human IgG (Sigma, #12136), diluted 1:1000 in coating buffer (Candor, #121125) was coated on the plate at 4° C. overnight. Next day, the plate was washed one time with 50 μl PBST and then blocked with 50 μl SmartBlock (Candor, #113125) for one hour at room temperature (RT). […] After three additional washes of the coated and blocked microtiter plate with PBS-T, 25 μl of each mixture were added and the assay plate was incubated for one hour at room temperature. After three additional washes, anti-mouse-gp130 biotinylated antibody (R&D, #BAF468) or anti-human gp130 biotinylated antibody (R&D, #BAF228), both 1:1000 in 10% SmartBlock PBS-T, was added and incubated for 1 hour at RT. After three additional washes, a Streptavidin-Peroxidase conjugate (Sigma, #S5512) 1:1000 in SmartBlock PBS-T was added and incubated for one hour at room temperature. After a final three washes, AmplexRed (Fisher Scientific, A12222), 1/1000 in PBS, 0,003% H₂O₂, was added as substrate and incubated for 15 min at RT in the dark. Then, the fluorescence was measured with a plate reader at 535/595 nm. Signals from dose responses were used to calculate IC50 values using GraphPad Prism software.

Efficacy (%), Stat3 reporter gene assay (murine IL-11): 84.1%
IC50, Stat3 reporter gene assay (murine IL-11): 2.7 nM
B1: TPP-18068 (antibody, mouse IgG1)
heavy: EVQLLESGGGLVQPGGSLRLSCAASGFTFSSYGMHWVRQAPGKGLEWVSVISYDGSYKYYADSVKGRFTISRDNSKNTLYLQMNSLRAEDTAVYYCAAGVPDYWGQGTLVTVSSAKTTPPSVYPLAPGSAAQTNSMVTLGCLVKGYFPEPVTVTWNSGSLSSGVHTFPAVLQSDLYTLSSSVTVPSSTWPSETVTCNVAHPASSTKVDKKIVPRDCGCKPCICTVPEVSSVFIFPPKPKDVLTITLTPKVTCVVVDISKDDPEVQFSWFVDDVEVHTAQTQPREEQFNSTFRSVSELPIMHQDWLNGKEFKCRVNSAAFPAPIEKTISKTKGRPKAPQVYTIPPPKEQMAKDKVSLTCMITDFFPEDITVEWQWNGQPAENYKNTQPIMDTDGSYFVYSKLNVQKSNWEAGNTFTCSVLHEGLHNHHTEKSLSHSPGK
light: QSVLTQPPSASGTPGQRVTISCTGSSSNIGAGYDVHWYQQLPGTAPKLLIYSNNERPSGVPDRFSGSKSGTSASLAISGLRSEDEADYYCAAWDDSLNGPVFGGGTKLTVLGQPKSSPSVTLFPPSSEELETNKATLVCTITDFYPGVVTVDWKVDGTPVTQGMETTQPSKQSNNKYMASSYLTLTARAWERHSSYSCQVTHEGHTVEKSLSRADCS
notes: mIgG1, Lambda

Efficacy (%), Stat3 reporter gene assay, human IL11RA, 0.78 nM hIL-11 [1]: 51.5%
IC50 [M], Stat3 reporter gene assay, HEK 293F transfected with human IL11RA, 0.78 nM hIL-11 [1]: 1.07e-07 M
Efficacy (%), Stat3 reporter gene assay, mouse Il11ra, 3.13 nM mIL-11 [2]: 49%
IC50 [M], Stat3 reporter gene assay, HEK 293F transfected with mouse Il11ra, 3.13 nM mIL-11 [2]: 3.31e-07 M
ratio of the signals versus the isotype control TPP-10159 [3]: 2.4
Kd [4]: 53 nM
Kd [5]: 42 nM
Efficacy (%) [6]: 5.5%
B2: TPP-18087 (antibody, mouse IgG1, V domains shown)
VH: EVQLLESGGGLVQPGGSLRLSCAASGFTFSHYDMNWLRQAPGKGLEWVGVISYDGSNKFYADFVKGRFTISRDNSKNTLYLQMNSLRAEDTAVYYCARTPGSHFDYWGQGTLVTVSS
VL: QSVLTQPPSASGTPGQRVTISCSGSSSNIGNNAVNWYQQLPGTAPKLLIYYDDLLPSGVPDRFSGSKSGTSASLAISGLRSEDEADYYCSAWDDSLNGVVFGGGTKLTVLG
notes: mIgG1, Lambda

Efficacy (%), Stat3 reporter gene assay, human IL11RA, 0.78 nM hIL-11 [1]: 65.6%
IC50 [M], Stat3 reporter gene assay, HEK 293F transfected with human IL11RA, 0.78 nM hIL-11 [1]: 1.5e-08 M
Efficacy (%), Stat3 reporter gene assay, mouse Il11ra, 3.13 nM mIL-11 [2]: 80.7%
IC50 [M], Stat3 reporter gene assay, HEK 293F transfected with mouse Il11ra, 3.13 nM mIL-11 [2]: 9.6e-09 M
ratio of the signals versus the isotype control TPP-10159 [3]: 0.8
Kd [4]: 11 nM
Kd [5]: 9 nM
Efficacy (%) [6]: 76.6%
IC50 [6]: 14 nM
B3: TPP-19528 (antibody, mouse IgG1, V domains shown)
VH: EVQLLESGGGLVQPGGSLRLSCAASGFTFSIYAMSWVRQAPGKGLEWVSSISDTGDRTYYADSVKGRFTISRDNSKNTLYLQMNSLRAEDTAVYYCARSNWGSLDYWGQGTLVTVSS
VL: B2 VL with N31S, A33Y, N35Y, S90A, N97S, V99R
notes: mIgG1, Lambda

Efficacy (%), Stat3 reporter gene assay (murine IL-11): 49%
IC50, Stat3 reporter gene assay (murine IL-11): 330 nM
B4: TPP-18087 (antibody, mouse IgG1, V domains shown)
VH: B2 VH
VL: B2 VL
notes: mIgG1, Lambda
